Results from PMC6322573, “Profiling of advanced glycation end products uncovers abiotic stress-specific target proteins in Arabidopsis” (Journal of Experimental Botany, 2018).

What was measured:
[1] = substrate: O=CC(O)COP(=O)(O)O; experiment: purified protein; conditions: non-glycated enzyme, 10 mM NAD+, 3 mM DTT, 10 mM sodium phosphate pH 8.5, 100 mM NaCl, 25 °C
[2] = substrate: O=CC(O)COP(=O)(O)O; experiment: purified protein; format: biochemical, Arabidopsis thaliana; conditions: non-glycated enzyme, 0.1 mM NADH, alpha-glycerophosphate dehydrogenase 5 U, 10 mM sodium phosphate pH 7.0, 100 mM NaCl, 25 °C

Protein	Km [1]	kcat [1]	kcat/Km [1]	Km [2]	kcat [2]	kcat/Km [2]
GAPC1 (cytosolic glyceraldehyde-3-phosphate dehydrogenase C1) (Arabidopsis thaliana) (protein) MADKKIRIGINGFGRIGRLVARVVLQRDDVELVAVNDPFITTEYMTYMFKYDSVHGQWKHNELKIKDEKTLLFGEKPVTVFGIRNPEDIPWAEAGADYVVESTGVFTDKDKAAAHLKGGAKKVVISAPSKDAPMFVVGVNEHEYKSDLDIVSNASCTTNCLAPLAKVINDRFGIVEGLMTTVHSITATQKTVDGPSMKDWRGGRAASFNIIPSSTGAAKAVGKVLPALNGKLTGMSFRVPTVDVSVVDLTVRLEKAATYDEIKKAIKEESEGKLKGILGYTEDDVVSTDFVGDNRSSIFDAKAGIALSDKFVKLVSWYDNEWGYSSRVVDLIVHMSKA	0.77 (±0.21) mM	76.4 s⁻¹	99000 M⁻¹ s⁻¹			
TPI (chloroplastic triosephosphate isomerase) (Arabidopsis thaliana) (protein, measured mass 29273 Da; homodimer) MAGSGKFFVGGNWKCNGTKDSIAKLISDLNSATLEADVDVVVSPPFVYIDQVKSSLTDRIDISGQNSWVGKGGAFTGEISVEQLKDLGCKWVILGHSERRHVIGEKDEFIGKKAAYALSEGLGVIACIGEKLEEREAGKTFDVCFAQLKAFADAVPSWDNIVVAYEPVWAIGTGKVASPQQAQEVHVAVRGWLKKNVSEEVASKTRIIYGGSVNGGNSAELAKEEDIDGFLVGGASLKGPEFATIVNSVTSKKVAA				1.21 (±0.39) mM	18.4 ± 2.25 s⁻¹	15000 M⁻¹ s⁻¹
